Values quoted from earlier work as cited in PMC6255930.

Target: hemopexin (Homo sapiens) (UniProt P02790)
UniProt P02790, sequence (P02790 24-462): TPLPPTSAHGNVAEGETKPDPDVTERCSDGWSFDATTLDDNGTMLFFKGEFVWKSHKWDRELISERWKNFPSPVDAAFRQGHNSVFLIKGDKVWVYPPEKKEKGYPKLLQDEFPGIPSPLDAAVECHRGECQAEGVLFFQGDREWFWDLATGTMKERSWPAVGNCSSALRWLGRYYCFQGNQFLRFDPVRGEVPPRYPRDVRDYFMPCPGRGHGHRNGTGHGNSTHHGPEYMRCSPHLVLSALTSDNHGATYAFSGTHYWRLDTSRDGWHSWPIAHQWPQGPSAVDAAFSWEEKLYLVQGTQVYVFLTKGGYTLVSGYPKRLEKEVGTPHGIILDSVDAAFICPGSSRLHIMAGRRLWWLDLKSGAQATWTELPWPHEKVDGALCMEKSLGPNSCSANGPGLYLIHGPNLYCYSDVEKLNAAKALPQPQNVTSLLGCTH

Kd: 4 nM
Substance: LRP1 (from UniProt Q07954)
